{"source": "paper PMC5643395", "system": "histone octamer WT", "assay": "ensemble FRET (microplate), salt-induced disassembly", "details": "Reconstitution by dialysis from 2 M to 5 mM NaCl in 10 mM Tris-HCl, 0.1 mM EDTA; FRET over NaCl titration (FRET buffer and temperature not in the material) …", "data": [{"substance": "Widom 601 170 bp", "values": [{"measurement": "K half", "value": 800, "unit": "mM NaCl"}]}]}
